According to the DeepSol protein solubility set:

Test: soluble on expression in E. coli; label from the status in PepcDB or PDB records

Sequence	soluble on expression in E. coli
MGSDKIHHHHHHMQGLGLIVCRQGSFQFSLDNKCASAKAGETLFIHEESWVQVLQETEDVEILILAYQIEPIRDIIGNSVVSMYMYSKLTPELSCVWNTGEEDEIMKYMSLIDSVLEMEESVFSLYEQKLLLLALTYRICSVYNRKLISAGQETGGRKNEIFVRLIQLIEQYYMQERSVEFYADKLCLSPKYLSALSKSICGYTVQELVFKAIIRKCISLLKNTQKNIQEISNEFGFPNASYFGTFFKKQMGMSPQQYRRNL	not soluble
MTDDKDVLRDVWFGRIPTCFTLYQDEITEREAEPYYLLLPRVSYLTLVTDKVKKHFQKVMRQEDVSEIWFEYEGTPLKWHYPIGLLFDLLASSSALPWNITVHFKSFPEKDLLHCPCKDAVEAHFMSCVKEADALKHKSQVINEMQRKDHKQLWMGLQNDLTSFGPSTGNSWNTLQKKMDFVISLLEYIRPQLNGLSFRSCSVLWPQMDSCIPLEIS	not soluble
MSLYKLYSMQRSGNSYKVRLALALLDAPYRAVEVDILRGESRTPDFLAKNPSGQVPLLETAPGRYLAESNAILWYLAVGTSLAPDTRMDRAEALQWMFFEQHALEPNIGSAYFWLCLVKGGRDLQTHALEDWLERGYAALQVMENHLKTNDYFAAGQLTIADIALYGYTHVADQCDFDLSTFPAVNAWLRRVEQTPGFITMDWTPETIAADPTSFAAEGHHHHHH	soluble
MGSDKIHHHHHHAQTPVEKGLKSINRQAAEAYIGFLADDELQGREAGFHGSRVAARYIASLLKEMGIRPLGESYYQPFDAYRKERQQKGRLEVHPDSIAKLKQVVHQKLSMNNVLGMIPGKKTNEYVIVGAHFDHLGIDPALDGDQIYNGADDNASGVSAVLQIAKAFVVSGQQPERNVIFAFWDGEEKGLLGSKYFVQECPFINQVKGYLNFDMIGRNNQPQNPKHVVYFYTEANPAFGRWLKEDIKKYGLQLEPNYRPWDKPVGGSDNGSFAKAGIPIIWYHTDGHPDYHQPSDHADRLNWDKVVEISKASFLNVWNLANEKDY	not soluble
MNFEGKIALVTGASRGIGRAIAETLAARGAKVIGTATSENGAQAISDYLGANGKGLMLNVTDPASIESVLEKIRAEFGEVDILVNNAGITRDNLLMRMKDEEWNDIIETNLSSVFRLSKAVMRAMMKKRHGRIITIGSVVGTMGNGGQANYAAAKAGLIGFSKSLAREVASRGITVNVVAPGFIETDMTRALSDDQRAGILAQVPAGRLGGAQEIANAVAFLASDEAAYITGETLHVNGGMYMV	soluble
MGRKKRLKVERKAVAENQSQILTMVTISETEMEKEKTYTALQKLKSVSNDLFEECQRVFANTSFCTAELENIVGCFDRYEKEISTIPDEYRTHPCVIKFQNCIRALCNVVAKKLNNTTRDVETQTNFQSPRITWRQRYWMPYLNK	not soluble
FPAISEHFTEDYSSHTEQMLDLVLDSTDMRIEDGKRINPAFMFAAMLWYPLCALADKLMDQHNLCHYDAIMEASNIILDDQVRTIAIPRRHTATIREIWQLQLRLPRRNGKRAFRLMELNKFRAGFDFLEMRGEIEGGDTLKLAKWWETFQNAGREMRQAMAADLDGQAPKSGQRRRKTFRKKKSKPKS	not soluble
MGSDKIHHHHHHMQTLKRGFAVAALLFSPLTMAQDINAQLTTWFSQRLAGFSDEVVVTLRSSPNLLPSCEQPAFSMTGSAKLWGNVNVVARCANEKRYLQVNVQATGNYVAVAAPIARGGKLTPANVTLKRGRLDQLPPRTVLDIRQIQDAVSLRDLAPGQPVQLTMIRQAWRVKAGQRVQVIANGEGFSVNAEGQAMNNAAVAQNARVRMTSGQIVSGTVDSDGNILINL	not soluble
MGSDKIHHHHHHMIIFFQLSSPYLLDIYHLDILYGMSFIKAIIKKMSGGVLLKIIDTVPFFLKYYESSLAFLKHYYSQYPKIFNEYFAYHCKDTEERHDQSLAKYPESLLAIQQVRRAIIPIIEEVVEEYGRLYQVTFPTEVNLIVGGYGSNAYTHRQIIPDVTFALERLSPKVEHLQAIVAHDFGHVAHNILSSEAGMDWGKVQWDSPLIWLYQEGAAIHFSRQIAPQLPPAMYFSFDAEGEEWLRFFKENTHAVKSAFAHDYVQETSQSMFQEWFSINGGKRFGYNRLGYLVGDLLFQHFTKTKGERNAITAWKEGRFREEVERWFKR	not soluble
MGSDKIHHHHHHMTVRDFHYYEPAEGHGLSHNPLNALVAPRPIGWISSRDAQGRVNLAPYSFFNAFNYDPPIIGFSSIAWKDSVQNASETREFTWNLVTRELGDQMNQTSSPLPHGEDEFQFAGLTAVAGRKVNVPRVGESRAAMECKVIDIVQFRNTAGEKVGGWLVLGEVVAVYIDKTLLKDGVYQTAEAYPIMRSGGLNDYVQVSPDNVFQIARLAGASSPSSHGKG	not soluble
MGSDKIHHHHHHMNDPTFYRDGQGQPIQPDSAREAVAWLTQLMSDSVTEQDRREWQRWREASPDNEQAWQHIESVCANLGQLNARAAHQSLSTLNGMQRRSVLKALAILCLTGGAGMAGSRTDVWQSFTADYQTQVGEQRHAVLEDGTTLLLNTQTALNVAYGDDLRQLTLIRGEVMIETSQVEKAALYPRPFIVTTAQGKVQALGTRFSLRVQDEHTQVAVYDGAVRLHPQRNGQDVQVVKSGQTATFTTQRCGQIETEKAEPAWVKGQLLADNQRLVDFVDELSRYRSGVIRCQPEVESLRFSGVFPLSDTDNILAALAEALPVQVRYFSRYWVQIAAR	not soluble
MGSDKIHHHHHHVNVEVCLFLIGHGAPGSEAGSTELSRFEAASQDIEGLRRFAIHVPAQADDCDPLSKTDASTCPRCVLQWYFDDLELLERTLQPGRAIHDLVDGSSNNGLTFTHQVMAVRTFATPNPSGPGTRAERCTYLVSYEGEAQDFNAWLTHYLLHHPPLMAQLPGIRELEIYTRLDYRSGLRIRRATAMQRNKVVFDDPAALAAALASPVRASMKQDFNAFPPYSGATLHFPMRSIYGNLKPK	not soluble
MVEEFKVTPWEVEGVVDYDKLIKHFGTSPLTEDLLEKTAELTKSELPIFFRRKFFFSHRDYDLILKDYEEGRGFFLYTGRGPSGPMHIGHIIPFFATKWLQEKFGVNLYIQITDDEKFLFKENLTFDDTKRWAYDNILDIIAVGFDPDKTFIFQNSEFTKIYEMAIPIAKKINFSMAKAVFGFTEQSKIGMIFFPAIQIAPTFFERKRCLIPAAIDQDPYWRLQRDFAESLGYYKTAALHSKFVPSLTSLSGKMSASKPETAIYLTDSPEDVEKKVWKFTLTGGRPTLKEQREKGGEPEKCVVFKWLEIFFEEDDKKLKERYYACKNGELTCGECKRYLISKIQEFLKEHQRRRKKAEKLVEKFKYTGKLAQEMWNEAIPEPLKRSHHHHHH	soluble
MVGIHQEVWLEVDLEFTKKMKIPVVRRDLGGGTVVITPGEHDYFIVVRQEDAPRNPSELYKKFLTPIVNVLRSYGLKADLRDQDIVVNGKKISGNGAMTHGNSIVIAGNILLSLDIDL	soluble
MGSDKIHHHHHHMKVVFLICNPAAGGGRAGKIWNRVEDLLKKHGIDHKFAFTERPGHAMEISKKAFKEGYRRIAAFGGDGTVNEMVNGIFLNGYDLREVVFGWIPFGSGKDWARTIGVPLEIEEAIKMLKDGKEFVQDLGVGEYEKASGEIEKRAFVNVAGLFFDGFVTYRTNLLKRKNRVSYFSRIFSSIIEYDPPTARIQIDEKVWEKRVFSMNVGICKYNGGGMNQLPHAVPDDGLLAVTVINDIGKLRILANLHRVFNGKLLEHPGVEGYQAKKVVVEFQRDEPVEFDGESFWAKKIFFSIIPGVIRVLVKK	not soluble
MESILITGASGFIGSFIVEEALKRKFGVWAGIRPTSSKKYLKNRKIHFLELDFAHPNELRAQLSGHKGTYNKFDYIIHCAGVTKCPDKNTFDYVNYLQTKYFIDTLKALNMVPKQFIYISTLSVFGPVREKDYSPIEAGDVPMPNTAYGLSKLKAELYIQSIPGFPYVIYRPTGVYGPRELDYFLMAKSIRQHVDFSVGFRRQDLTFVYVKDIVQAIFLGIEKKVTRRAYFLTDGKVYNSRVFSDLIQKELGNPFVIHVKCPLIVLKVISLLAEFIATRSGKSSTLNSDKYKIMKQRNWQCDITPAINELGYAPEYDLEKGVRETIDWYKNEGWL	not soluble
